Experimental data taken from doi:10.1101/681668 (bioRxiv, 2019).

What was measured:
Assay in all cases: pull-down
[1] = biological target: T1, MBP-ORC1 (human, UniProt Q13415 1-861)
T1 sequence: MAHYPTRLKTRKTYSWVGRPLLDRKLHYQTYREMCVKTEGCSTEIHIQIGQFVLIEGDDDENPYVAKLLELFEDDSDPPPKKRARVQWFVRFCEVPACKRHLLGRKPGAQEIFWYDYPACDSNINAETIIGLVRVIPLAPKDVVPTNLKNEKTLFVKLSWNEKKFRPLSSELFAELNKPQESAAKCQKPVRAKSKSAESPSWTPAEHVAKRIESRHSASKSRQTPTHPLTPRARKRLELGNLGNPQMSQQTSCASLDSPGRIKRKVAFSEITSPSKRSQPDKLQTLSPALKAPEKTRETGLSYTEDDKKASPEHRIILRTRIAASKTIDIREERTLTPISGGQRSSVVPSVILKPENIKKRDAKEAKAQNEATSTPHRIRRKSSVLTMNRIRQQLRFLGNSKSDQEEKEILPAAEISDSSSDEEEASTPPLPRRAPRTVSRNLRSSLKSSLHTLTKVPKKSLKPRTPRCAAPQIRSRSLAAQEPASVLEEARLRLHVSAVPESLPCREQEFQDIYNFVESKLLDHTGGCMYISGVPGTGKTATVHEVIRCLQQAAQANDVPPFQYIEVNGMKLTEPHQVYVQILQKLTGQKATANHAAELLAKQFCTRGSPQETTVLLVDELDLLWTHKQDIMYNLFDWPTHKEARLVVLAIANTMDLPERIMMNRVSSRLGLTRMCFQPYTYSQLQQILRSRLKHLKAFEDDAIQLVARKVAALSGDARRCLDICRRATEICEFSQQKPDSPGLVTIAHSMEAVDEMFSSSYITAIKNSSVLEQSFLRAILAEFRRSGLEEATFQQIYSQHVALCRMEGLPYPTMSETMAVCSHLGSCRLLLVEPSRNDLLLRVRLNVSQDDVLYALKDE

[2] = biological target: T2, MBP-ORC1 CDK3 (human, UniProt Q13415 1-861, T375A)
T2 sequence: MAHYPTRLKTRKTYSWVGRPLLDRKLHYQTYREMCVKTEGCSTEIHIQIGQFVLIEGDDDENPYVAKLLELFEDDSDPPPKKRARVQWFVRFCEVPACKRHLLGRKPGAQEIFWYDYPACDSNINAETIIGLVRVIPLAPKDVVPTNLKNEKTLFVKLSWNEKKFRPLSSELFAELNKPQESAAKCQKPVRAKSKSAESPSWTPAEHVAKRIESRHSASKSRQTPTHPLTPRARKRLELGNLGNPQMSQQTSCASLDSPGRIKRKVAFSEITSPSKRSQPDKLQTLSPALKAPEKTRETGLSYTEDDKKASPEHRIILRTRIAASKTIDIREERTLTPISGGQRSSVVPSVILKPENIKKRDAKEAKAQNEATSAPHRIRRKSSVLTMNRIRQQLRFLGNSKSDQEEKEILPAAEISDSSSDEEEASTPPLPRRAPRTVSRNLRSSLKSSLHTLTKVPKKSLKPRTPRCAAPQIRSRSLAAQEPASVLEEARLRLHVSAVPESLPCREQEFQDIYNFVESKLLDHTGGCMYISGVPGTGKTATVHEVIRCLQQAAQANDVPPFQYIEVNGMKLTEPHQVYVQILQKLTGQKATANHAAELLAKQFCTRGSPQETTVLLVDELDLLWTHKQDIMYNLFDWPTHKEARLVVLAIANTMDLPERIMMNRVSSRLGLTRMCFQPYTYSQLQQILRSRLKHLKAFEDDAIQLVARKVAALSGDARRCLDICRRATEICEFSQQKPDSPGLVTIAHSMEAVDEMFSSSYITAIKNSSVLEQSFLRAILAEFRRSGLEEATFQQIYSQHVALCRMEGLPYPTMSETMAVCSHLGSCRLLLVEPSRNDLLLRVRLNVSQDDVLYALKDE

[3] = biological target: T3, MBP-ORC1 R105Q (human, UniProt Q13415 1-861, R105Q)
T3 sequence: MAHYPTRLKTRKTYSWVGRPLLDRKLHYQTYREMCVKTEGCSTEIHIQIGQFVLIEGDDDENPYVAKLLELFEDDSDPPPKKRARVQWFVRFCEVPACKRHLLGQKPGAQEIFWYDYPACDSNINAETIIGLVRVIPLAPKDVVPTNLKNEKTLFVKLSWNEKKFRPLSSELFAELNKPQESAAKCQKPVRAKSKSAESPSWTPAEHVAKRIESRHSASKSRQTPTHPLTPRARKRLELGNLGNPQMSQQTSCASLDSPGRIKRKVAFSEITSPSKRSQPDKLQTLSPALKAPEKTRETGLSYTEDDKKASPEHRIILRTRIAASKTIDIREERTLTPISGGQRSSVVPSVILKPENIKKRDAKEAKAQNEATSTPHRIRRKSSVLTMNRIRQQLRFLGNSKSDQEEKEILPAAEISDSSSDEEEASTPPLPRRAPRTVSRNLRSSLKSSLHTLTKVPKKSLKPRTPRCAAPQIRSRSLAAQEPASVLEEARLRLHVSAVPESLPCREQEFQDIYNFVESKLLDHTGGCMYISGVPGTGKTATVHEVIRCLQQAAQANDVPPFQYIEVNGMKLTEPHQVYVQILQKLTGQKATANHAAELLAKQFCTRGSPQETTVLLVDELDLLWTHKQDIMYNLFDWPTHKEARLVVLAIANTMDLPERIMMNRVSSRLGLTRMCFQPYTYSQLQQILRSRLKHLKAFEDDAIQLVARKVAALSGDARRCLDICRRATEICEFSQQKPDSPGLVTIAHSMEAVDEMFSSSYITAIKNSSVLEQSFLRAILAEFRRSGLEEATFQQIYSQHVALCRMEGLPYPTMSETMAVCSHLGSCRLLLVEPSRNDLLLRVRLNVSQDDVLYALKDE

Measured: binding result

B1: GST-CDC6 (natural protein)
chain: MPQTRSQAQATISFPKRKLSRALNKAKNSSDAKLEPTNVQTVTCSPRVKALPLSPRKRLGDDNLCNTPHLPPCSPPKQGKKENGPPHSHTLKGRRLVFDNQLTIKSPSKRELAKVHQNKILSSVRKSQEITTNSEQRCPLKKESACVRLFKQEGTCYQQAKLVLNTAVPDRLPAREREMDVIRNFLREHICGKKAGSLYLSGAPGTGKTACLSRILQDLKKELKGFKTIMLNCMSLRTAQAVFPAIAQEICQEEVSRPAGKDMMRKLEKHMTAEKGPMIVLVLDEMDQLDSKGQDVLYTLFEWPWLSNSHLVLIGIANTLDLTDRILPRLQAREKCKPQLLNFPPYTRNQIVTILQDRLNQVSRDQVLDNAAVQFCARKVSAVSGDVRKALDVCRRAIEIVESDVKSQTILKPLSECKSPSEPLIPKRVGLIHISQVISEVDGNRMTLSQEGAQDSFPLQQKILVCSLMLLIRQLKIKEVTLGKLYEAYSKVCRKQQVAAVDQSECLSLSGLLEARGILGLKRNKETRLTKVFFKIEEKEIEHALKDKALIGNILATGLP
binds: all assays above
